# Measurements published in paper PMC3382138, “On the Structure and Function of the Phytoene Desaturase CRTI from Pantoea ananatis, a Membrane-Peripheral and FAD-Dependent Oxidase/Isomerase” (PLoS ONE, 2012).
# What was measured:
# [1] = test system: CC(C)=CCC/C(C)=C/CC/C(C)=C/CC/C(C)=C/C=C\C=C(/C)CC/C=C(\C)CC/C=C(\C)CCC=C(C)C; test: purified protein; conditions: 150 µM FAD, phytoene 0.8-9.2 µM (apparent bulk concentration) in phosphatidyl-choline liposomes, aerobic, phosphate pH 8.0, 100 mM NaCl, 37 °C, 12 min, not saturated
# [2] = test system: Cc1cc2nc3c(=O)[nH]c(=O)nc-3n(C[C@H](O)[C@H](O)[C@H](O)COP(=O)(O)OP(=O)(O)OC[C@H]3O[C@@H](n4cnc5c(N)ncnc54)[C@H](O)[C@@H]3O)c2cc1C; test: purified protein; conditions: phytoene 7 µM (7.5 µM in Figure 4 legend) in phosphatidyl-choline liposomes, aerobic, phosphate pH 8.0, 100 mM NaCl, 37 °C, 12 min, varied: cofactor
substance,measurement,setting,value
CRTI (CRTI-His6) (Pantoea ananatis),Km,[1],16.7 ± 1.9 µM
same,Km,[2],50.5 ± 2.9 µM
